Results reported in publication PMC4749545, “Kindlin-2 cooperates with talin to activate integrins and induces cell spreading by directly binding paxillin” (eLife, 2016).

Biological target: T1, recombinant murine kindlin-2 (mouse, UniProt Q8CIB5 1-680)
T1 construct: murine kindlin-2, unmodified after SenP2 cleavage of the His10-SUMO3 tandem tag; Vector pCoofy17; also called recombinant kindlin-2; purified kindlin-2; source: E. coli Rosetta, purified (Ni-NTA, SenP2 cleavage, size-exclusion chromatography); not shown: His10, N-terminal, cleaved; SUMO3, N-terminal, cleaved
T1 sequence (looked up): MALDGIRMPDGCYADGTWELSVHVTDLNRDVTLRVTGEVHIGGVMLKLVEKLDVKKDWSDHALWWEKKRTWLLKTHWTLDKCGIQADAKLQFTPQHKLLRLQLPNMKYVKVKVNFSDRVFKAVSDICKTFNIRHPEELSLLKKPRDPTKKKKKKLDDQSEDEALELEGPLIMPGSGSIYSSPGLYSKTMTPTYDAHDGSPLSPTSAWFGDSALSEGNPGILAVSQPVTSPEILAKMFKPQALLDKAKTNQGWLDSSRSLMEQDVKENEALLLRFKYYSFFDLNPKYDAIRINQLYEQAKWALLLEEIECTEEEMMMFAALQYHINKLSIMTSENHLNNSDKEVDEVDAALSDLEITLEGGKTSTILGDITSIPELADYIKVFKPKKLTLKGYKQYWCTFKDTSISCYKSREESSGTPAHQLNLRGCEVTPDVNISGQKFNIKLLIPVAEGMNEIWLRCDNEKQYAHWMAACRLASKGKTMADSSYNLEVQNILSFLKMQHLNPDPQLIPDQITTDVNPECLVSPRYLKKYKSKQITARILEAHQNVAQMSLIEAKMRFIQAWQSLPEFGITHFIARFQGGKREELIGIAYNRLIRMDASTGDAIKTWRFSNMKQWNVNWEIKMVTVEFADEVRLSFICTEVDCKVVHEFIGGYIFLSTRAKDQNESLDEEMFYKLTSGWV
Test: pull-down; His10-tagged paxillin-LIM3 (35 µg) or paxillin-FL (10 µg) on Ni-NTA agarose, washed with 1 mM ZnCl2; 14 µg purified kindlin-2 added for 30 min at 4°C; 20 mM Tris pH 7.5, 200 mM NaCl, 1 mM TCEP, 0.05% Tween20; washes with 25 mM imidazole and 1 mM ZnCl2; SDS-PAGE
Details: both partners purified

B1: His10-SUMO3-paxillin-LIM3 domain (domain or fragment, mouse, UniProt Q8VI36 473-533, looked up)
chain: APKCGGCARAILENYISALNTLWHPECFVCRECFTPFVNGSFFEHDGQPYCEVHYHERRGS
notes: paxillin LIM3 domain, A473-S533; Vector pCoofy17. 'murine' in the sentence of the methods stands before kindlin-2 and may or may not hold for paxillin-LIM3; also called His10-LIM3; His-tagged paxillin-LIM3 domain; source: E. coli Rosetta, purified (Ni-NTA, size-exclusion chromatography); not shown: His10, N-terminal, kept; SUMO3, N-terminal, kept
  binding result: binds
